Test: label from the status in PepcDB records

Row | Sequence | protein production
1 | MLAGADKVFLYAKPEQIEAFVAAAQSAGVRQVVLLSSVSVVMATSEQNPIARMHRTVELAIERSGLDWTFIRPGMFATNARWWWGESIRGEGVVRLPYPEAQNAPVHEKDMAALAVTALTEPGHSHQAYTVHGSESLTLRRQVEHIGEALGRPIRVETVSVEQAREEFAEKAPSNVAEALLRMWAAADGVPAPVSVIVDRITGRPAHTFAQWAADHADDFR | failed
2 | MITRTVKAQLLAFATVTAVGVSYVGAEYTGLVDDVLGRGYTVRADFADSGGIFPGAEVTYRGVPVGRVGALRLTGSDGVSVALDIKDGVPRIPADTLAVVANRSAVGEQYVDLQPRTSHGPYLLDGSAIPRGSTRVPLPTTDLVLSLDRLVDSVGKDDLRVTVDELGKAFSGTGPNLSRLVDSGNALVESASESLPQTISLIEDSRKVLKTQADQGSSIKSFAHDLAALSAQLKSSDGDLRKLIGNATPAAQQVNSLLKSTGPRLSVLLANLISGGQVTLARLPGVEQSLVTFPALVAGSYTVVPGDGTTHFGLVVNADDPPPCTQGYGTTRRDPSDTSTREANTDARCTAPRGNKTSVRGAQNAPGASTTSGGTNQAAYVTPYDPETGTATGPDGRPVEIGSTGGQQAVFGRESWQWLLVGPMA | failed
3 | QTQVNAEKKIQVEFVSANPTSSLHVGHGRGAAYGMTVANLLEATGAQVDREYYVNDAGRQMDILATSTYLRYLELLGQPLVFPKNAYQGDYVKEIAQSIIDKDGDAYVRSVADVYRNVPEDVQYAEELDSEGNKVVLSGDKEKHIDGLIANSQQLIGQGYRVFHQAALKAILDDIKDDLADFGVTFDQWFSEASLTQKIDEALQTLDQRGYLYEKEGNIWFKSTKFGDEKDRVVKRRNGQTTYFASDIAYHLDKLQRGYTHIVDIWGSDHHGYIARVKAAIDAMGYDSSKLTVLLVQFVSLWRGGEMVQMSSRSGQFVTLRELRQEVGNDAARFYYVMRKSEQHIDFDLDLAVSQSKDNAVYYIQYAHARICRMLEKANS | failed
4 | MMTLNAFIEKLSTQPELIEFTETMAVIESHYEFTPTEFANGNTVNLADQNNGSCKIFAFALLNQLSVDQTLACFGQYYRQDVLENPQGDDHQNIRNFMVTGWAGVQFKAQALQAK | failed
5 | MKNDDLLMQIMMLDFAVQDSALFIDTHPCDKEAMNYFNEAATRLKAAKKEYQKQGHALVNREVGAYQNDYLSAPWPWVGDHKCGCTKNVCNTL | failed
6 | HGTGKQTNALADYWTSEFVNSVRQGIPVPNNYTVINCDFDQYMWEEAAAGCLATQLNSFIQAKNIDDLILLTHSNGGNVVRWILSNPTWDSRYPAVINATSKVIALAPSSGGTPLADAVNQGNVFETTLGWLLGYGSNAVKQQQVGWMAHYNNTWLFGTAGRPRLGKPFEVVVGSDVDSAIWDSDSYCAGYQYQVALETTQNWLDSCSDGFLNCSSQKAAGTVWFTDKQKTRGQEPLSHQQSRRACFNLDTL | failed
7 | MFYTIEELVQQADRDYQGNIAELMIATETELSGRDRSEILELMTRNLEVMKDSVQTGLSPEKSPTGLTGGDAAKLDAYIKRGKTLADSAVLGAARNAMAVNESNAKMGLVCATPTAGSAGCLPAVLTVAIEKLGLNESQQLDFLFTAGAFGLVIANKASISGAEGGCQAEVGSASAMAAAAITMAAGGTPFQASQAICFVLKNMLGLICDPVAGLVEVPCVKRNAMGASFALVAADMALAGITSAIPVDQVVDAMYQVGSAMPTAFRETAEGGLAATPKGKALAKEIFG | not failed
8 | SLGEMKRAAIIIDDFGGDVKGVDDFLTGEIPVTVAVMPFLEHSTKQAEIAQAAGLEVIVHMPLEPKKGKISWLGPSGITSNLSVGEVKSRVRKAFDDIPYAVGLNNHMGSKIVENEKIMRAILEVVKEKNAFIIDSGTSPHSLIPQLAEELEVPYATRSIFLDNTHSSRKEVIKNMRKLAKKAKQGSEPIGIGHVGVRGDETYAGIRSMLDEFQAESIQLVPVSQLLPSPIEEDHNKFWQQPFQAKE | not failed
9 | MLAAGMSRRMGFNKLLAPLCGKRVLWHVLELVARFEGVLEGAVVVTSGEVADVLRRERPPGRRGLFRVVVNREQWRGLSHSIRLGVEASPGARAYLFFNGDRPFVSKHTVARVLALYMARRPLIAAPMAGGAIAPPVVVDSRLRGELLRLSGDTGVRSLFGKYRDSLAVVEVDDPGLHLDVDTPEDLERASKMCSQLGGGPREKPLEHHHHHH | failed
10 | MSNEHTRPPLPPFTRESAIEKVRLAEDGWNTREPEKIALAYTVDTQWRNRAEFANNREEARDFLTRKWKKELDYRLIKELWAFTDNRIAVRYAYEWHDDSGNWFRSYGNENWEFEADGLMHRRFACINDMPIKESERKFHWPLGRRPDDHPGLTELGLLEHHHHHH | failed
11 | MSLIVSTIASHSSLQILLGAKKEGFKTRLYVSPKRRPFYSSLPIVDDLVVAEEMTSILNDDGIVVPHGSFVAYLGIEAIEKAKARFFGNRRFLKWETTFELQDKALEGAGIPRVEVVEPEDAKPDELYFVRIEGPRGGSGHFIVEGSELEERLSTLEEPYRVERFIPGVYLYVHFFYSPILERLELLGVDERVLIADGNARWPVKPLPYTIVGNRAIALRESLLPQLYDYGLAFVRTMRELEPPGVIGPFALHFAYDGSFKAIGIASRIDGGSNADHWYSELYWGERLSMGRRIARELRLAEEEDRLEEVVTEGHHHHHH | not failed
12 | MTSSRVNSLIVGGFVLILLGGIIAAATILAGKTGSTDTYFTSYDNVTGIKYGTQVLYEGYRIGQVDEIIPEQRAEGTSFRLRLAVQKGWRIPEGSQTTIATSGLLSAVAINIRGGTAEASLTPGSEIPGGASGGMFAAINDLASEVGTLSRDGLEPLVAKLNAYVDTLGGSLADNLPAILGNARITSEAIARDLPPIIARVDRFTARLDAEVLSQKNIDGLGASIGNISAFSAELNGLGRELRQTGQTLDGMVAGSAPLVDSSLRDLRYTLRALASSIDAITFNMEGASRDMKEFSRSLRQNPGVLLRGSAPAEDGR | failed
13 | MIRVLFAFIILLLSVFLGIQLNKDPGYVLIAINNWTIETTLWVSVFGLFFLFFLIYGLVQFCNKITRMPGMVNKWHSRRLAQKAQATTRKGLIEYSEGYWQKAKNHLIQALPNTDTPLLNYLTAARAAQKMGDSKLRDHYLREAQQSMPEAKIAVELTQAQLQLANHQWEQALATLKHLQDLAPRHPYVLKLLMNLYEEIKDWQQLIALLPDLKKNHIISDQAFEQLQKNTYLQAMIDLAKHNQSDGITKLYQTLPKTLVNDTAITAEYARFLIRNQDYDQAEYHLKRCLRKELDNRLIELYSLLPCEENQLLFAESLLKKNPHSAALYLCLGRMCLSRHLWGKAKHYLEQSIELNPTPVAFIELGKLHEKLNDPLSSGSCYKKGLELITKDELS | failed
14 | MKWNSNLYDHKHSFVAEYGKSMINFVNVGKDQKILDLGCGTGVLTNELAKNGATVIGTDLSKNMIDKAKTNYPNLIFQVKDATNLSFKNEFDTVFSNAVFHWISNQEKLLHSIYTCLKDNGTLICEFGAQNNISQIQTAFEKVIEQKGYSYCSPFFFPSKEEYKLLLDQAGFEVKHIIEYDRPTPLADGEKGLRNWICQFFASDLLEFSDEQKEQILFETEKLCKNSIWKNNQWVADYRRIQIIAVKNKNNGTK | failed
15 | MPRRTATMLASTLMLIALLCAGVFIKVPYAEMSPGPTVNTLGEHDGEPVLQITGHKTYATTGHLNMTTVRVTSADYRMNLVEAVYGWLAHDNKVVPHDTLYPDGKTEEQSTQENAEEFSQSQESAKVAALKELDIPVKSWVIVSTVLKDSPAEGRLHAGDVIKAVDGTAVKAPDDVAELVTKHKPGDDVAFTILPAKEQAAAEKSKTYVPRTKKVTITTAKSDDTGAPRAIVGISAGTDHTFPFTVDIKLADVGGPSAGLMFALGIVDKLTPDDLTGGKFVAGTGTIDDDGKVGPIGGIEMKTVGAREKGAQYFLTPKDNCAAAAKDTPEGLTLVKVNTIDDALDALKDIRTGKTADLPKCTTKG | failed
16 | TRRIMQLVFTDVTKHKEYEETLRKEQQVVQDILDFQSSIVLVAGSDEGVLSANRSALDFFGFRDVKEFRMHYRCICEAFIDREGFLKNRHEAWLHEALLANQTGRDSKAIIKDRHSGEERIFVVKVGRYPRDSHKFIVSLTD | failed
17 | MLAYQGLFQNGLMQVSPSYFSQTYLLGDVNYQTVGLDDKGAIVEKYSDLINSLDDKTNFQLTIFNQKVNLEKFRKSILYPLQEDGFDTYRDELNRMMDANLEAGENNFSAVKFLSFGKSDQTPKLAFRSLSQIGEYFKSGFSEIDVSLGLLGGEERVNVLADMLRGENHLPFSYKDLTLSGQSTKHFIAPTYLSFKHKNHIELDDRLLQIVYVRDYGMELGDKFIRDLMQSDLEVMISLHAKGSTKSETMTKLRTKKTLMESQKIGEQQKMARTGIYLEKVGHVLENNIDEAEALLQTMTQTGDKLFDTVFLIGVLADTEDQLKQSLDIIKQVAGSNDMIIDNLTYMQEAAFNSLLPFGKNYLEGVSRSLLTSNIAVNAPWTSVDIHDKGGKFYGINQISSNIISIDRGKLNTPSGLILGTSGAGKGMATKHEIISTKLKEADSDTEIIIVDPENEYSIIGQAFGGESIDIAPDSTTFLNVLELSDENMDEDPVKVKSEFLLSWIGKLLDRKMDGREKSLIDRVTRLTYKHFDTPSLVEWVFVLSQQPEQEAKDLALDMELYVEGSLDIFSHRTNIKTDSHFLIYNVKKLGDELKQIALMVIFDQIWNRVVKNQKLGKKTWIYFDEMQLLLLDKYASDFFFKLWSRVRKYGAIPTGITQNVETLLLDANGRRIIANSEFMILLKQAKSDREELVHMLGLSKELEKYLVNPEKGAGLIKAGSTVVPFKNKIPQHTKLFDIMSTDPEKMRTLEHHHHHH | failed
18 | MPTKTYSEEFKRDAVALYENSDGASLQQIANDLGINRVTLKNWIIKYGSNHNVQGTTPSAAVSEAEQIRQLKKENALQRARTRHPAESCLEHHHHHH | not failed
19 | MTNLFLGFLVISFCLLGNLIHAADGSIHDYNNSGGFTKIANARYFVGGSEGIYGSEFLDVHHASSDTPLLKGNSFIRFDDITFVRTKESASKQNSTLAAAGLVEAILFEVKQRDRVGGSFFKSEDMCCTPKLADAGSCNLGEVMISADPNDPEWPKRIPTFFKRGEEEVKMSPEAVIIKKTGLYTVYFMTCDPELDGATIRGRTVWKNRGGYLQGEKAPLKKFYASMLLAYVVLGLVWFPQVAQYWKDGIQLHSHINFVIAFTMGELAFLYLDFVYLDSAGTSPMEVTVWAITLSSMRKALSRLLLLVISSGFGIVRPTLGGITLKMLLIGVLCFVISESLGLAMQFGNISENGMNYLMLSWAILETCFIQWIFRSLSKTLKKLKLNKRNITKLQLYKMFATVLVIMVVLSFAWIYVEVYLYSSLSQFWKVKWIVPTLWYILSYAMLVLICLFWPPSEKPMRYLYVADMEEETEEEDDLSTAETGMNATKAEYERSERKTLLEAFILLLGNIPGEK | failed
20 | MKKFIILLSLLILLPLTAASKPLIPIMKTLFTDVTGTVPDAEEIAHKAELFRQQTGIAPFIVVLPDINNEASLRQNGKAMLAHASSSLSDVKGSVLLLFTTREPRLIMITNGQVESGLDDKHLGLLIENHTLAYLNADLWYQGINNALAVLQAQILKQSTPPLTYYPHPGQQHENAPPGSTNTLGFIAWAATFILFSRIFYYTTRFIYALKFAVAMTIANMGYQALCLYIDNSFAITRISPLWAGLIGVCTFIAALLLTSKR | failed
21 | MALPLSQLPQEIIREVRGRKGLAFLAFVIVSFAVLGAGFVWPYKYQSETIIFVDDRNIIAPLMEGRAVATEINDRTSAAKELLMSRSLIEKVALDPEIYPDAPSDPAALEYRIANIRSGLSVRPRGDSYFSIGFSSTSQMEAFRVAQKLGQVFIEETKDRKRAESRNAYDFIDKQVKSYEQQLAQAENRLKEFLSENTDGTEQEANARMAQLRNQLELAELEKKELETRAASLQSQLGGIRPTITQGRTEDAYRERIRILEERLDSLRLQYHDTYPDIVILREQLAELRKQRDQAAERPTDVSSLEGEEAVNPLYQELRANLSTTRADMATVDTRITSLSRLLEQQAKRMERIQANKAQYSELTRDMEVNREIYDDLLKRREKARVSMHLDIEGQGLNYRINETAQFPRTPSGPQFSMFAAAGLFLGLAAPFGAVAGLLQVDPRIRARKQLEEDIGLPVLVEIPEVRTPYEKRRDRKVTLLIGIFAVLTVTVYVTIVVLAQMGVI | failed

From a protein production outcome set (Wang et al. 2014)
